± gives the uncertainty stated by the source.
B1: Homeobox protein cut-like 1, residues 548 to 629; numbered along this chain, P39880 (parent)
chain: GEEMDTAEIARQVKEQLIKHNIGQRIFGHYVLGLSQGSVSEILARPKPWNKLTVRGKEPFHKMKQFLSDEQNILALRSIQGR

Variants of: B1
Assay: abundance fitness (aPCA) (normalised: wild type 0, dead -1); higher = more abundant; growth selection in yeast, the domain comes from the species named
Conditions: Homo sapiens

Variant | abundance fitness
GEEMDTAEIARQVKEQLIKHNIGQRIFGHYVLGLSIGSVSEILARPKPWNKLTVRGKEPFHKMKQFLSDEQNILALRSIQGR [Q36I] | -0.059 ± 0.053
GEEMDTAEIARQVKEQLIKHNIGQRIFGHYVLGLSKGSVSEILARPKPWNKLTVRGKEPFHKMKQFLSDEQNILALRSIQGR [Q36K] | 0.025 ± 0.037
GEEMDTAEIARQVKEQLIKHNIGQRIFGHYVLGLSDGSVSEILARPKPWNKLTVRGKEPFHKMKQFLSDEQNILALRSIQGR [Q36D] | 0.056 ± 0.045
GEEMDTAEIARQVKEQLIKHNIGQRIFGHYVLGLSAGSVSEILARPKPWNKLTVRGKEPFHKMKQFLSDEQNILALRSIQGR [Q36A] | 0.021 ± 0.026
GEEMDTAEIARQVKEQLIKHNIGQRIFGHYVLGLSCGSVSEILARPKPWNKLTVRGKEPFHKMKQFLSDEQNILALRSIQGR [Q36C] | -0.157 ± 0.047
GEEMDTAEIARQVKEQLIKHNIGQRIFGHYVLGLSLGSVSEILARPKPWNKLTVRGKEPFHKMKQFLSDEQNILALRSIQGR [Q36L] | 0.008 ± 0.032
GEEMDTAEIARQVKEQLIKHNIGQRIFGHYVLGLSHGSVSEILARPKPWNKLTVRGKEPFHKMKQFLSDEQNILALRSIQGR [Q36H] | -0.017 ± 0.069
GEEMDTAEIARQVKEQLIKHNIGQRIFGHYVLGLSEGSVSEILARPKPWNKLTVRGKEPFHKMKQFLSDEQNILALRSIQGR [Q36E] | 0.055 ± 0.029
GEEMDTAEIARQVKEQLIKHNIGQRIFGHYVSGLSQGSVSEILARPKPWNKLTVRGKEPFHKMKQFLSDEQNILALRSIQGR [L32S] | -0.793 ± 0.054
GEEMDTAEIARQVKEQLIKHNIGQRIFGHYVQGLSQGSVSEILARPKPWNKLTVRGKEPFHKMKQFLSDEQNILALRSIQGR [L32Q] | -0.791 ± 0.063
GEEMDTAEIARQVKEQLIKHNIGQRIFGHYVPGLSQGSVSEILARPKPWNKLTVRGKEPFHKMKQFLSDEQNILALRSIQGR [L32P] | -0.894 ± 0.084
GEEMDTAEIARQVKEQLIKHNIGQRIFGHYVTGLSQGSVSEILARPKPWNKLTVRGKEPFHKMKQFLSDEQNILALRSIQGR [L32T] | -0.741 ± 0.057
GEEMDTAEIARQVKEQLIKHNIGQRIFGHYVYGLSQGSVSEILARPKPWNKLTVRGKEPFHKMKQFLSDEQNILALRSIQGR [L32Y] | -1.01 ± 0.21
GEEMDTAEIARQVKEQLIKHNIGQRIFGHYVVGLSQGSVSEILARPKPWNKLTVRGKEPFHKMKQFLSDEQNILALRSIQGR [L32V] | -0.41 ± 0.033
GEEMDTAEIARQVKEQLIKHNIGQRIFGHYVRGLSQGSVSEILARPKPWNKLTVRGKEPFHKMKQFLSDEQNILALRSIQGR [L32R] | -0.943 ± 0.043
GEEMDTAEIARQVKEQLIKHNIGQRIFGHYVLDLSQGSVSEILARPKPWNKLTVRGKEPFHKMKQFLSDEQNILALRSIQGR [G33D] | -0.268 ± 0.049
GEEMDTAEIARQVKEQLIKHNIGQRIFGHYVLFLSQGSVSEILARPKPWNKLTVRGKEPFHKMKQFLSDEQNILALRSIQGR [G33F] | -0.883 ± 0.28
GEEMDTAEIARQVKEQLIKHNIGQRIFGHYVLRLSQGSVSEILARPKPWNKLTVRGKEPFHKMKQFLSDEQNILALRSIQGR [G33R] | -0.351 ± 0.026
GEEMDTAEIARQVKEQLIKHNIGQRIFGHYVLVLSQGSVSEILARPKPWNKLTVRGKEPFHKMKQFLSDEQNILALRSIQGR [G33V] | -0.895 ± 0.054
GEEMDTAEIARQVKEQLIKHNIGQRIFGHYVLHLSQGSVSEILARPKPWNKLTVRGKEPFHKMKQFLSDEQNILALRSIQGR [G33H] | -0.111 ± 0.059
GEEMDTAEIARQVKEQLIKHNIGQRIFGHYVLALSQGSVSEILARPKPWNKLTVRGKEPFHKMKQFLSDEQNILALRSIQGR [G33A] | -0.341 ± 0.032
GEEMDTAEIARQVKEQLIKHNIGQRIFGHYVLLLSQGSVSEILARPKPWNKLTVRGKEPFHKMKQFLSDEQNILALRSIQGR [G33L] | -0.822 ± 0.055
GEEMDTAEIARQVKEQLIKHNIGQRIFGHYVLTLSQGSVSEILARPKPWNKLTVRGKEPFHKMKQFLSDEQNILALRSIQGR [G33T] | -0.798 ± 0.071

Variant | abundance fitness
GEEMDTAEIARQVKEQLIKHNIGQRIFGHYVLYLSQGSVSEILARPKPWNKLTVRGKEPFHKMKQFLSDEQNILALRSIQGR [G33Y] | -1.16 ± 0.35
GEEMDTAEIARQVKEQLIKHNIGQRIFGHYVLKLSQGSVSEILARPKPWNKLTVRGKEPFHKMKQFLSDEQNILALRSIQGR [G33K] | -0.217 ± 0.039
GEEMDTAEIARQVKEQLIKHNIGQRIFGHYVLELSQGSVSEILARPKPWNKLTVRGKEPFHKMKQFLSDEQNILALRSIQGR [G33E] | -0.312 ± 0.033
GEEMDTAEIARQVKEQLIKHNIGQRIFGHYVLQLSQGSVSEILARPKPWNKLTVRGKEPFHKMKQFLSDEQNILALRSIQGR [G33Q] | -0.221 ± 0.037
GEEMDTAEIARQVKEQLIKHNIGQRIFGHYVLPLSQGSVSEILARPKPWNKLTVRGKEPFHKMKQFLSDEQNILALRSIQGR [G33P] | -0.882 ± 0.086
GEEMDTAEIARQVKEQLIKHNIGQRIFGHYVLILSQGSVSEILARPKPWNKLTVRGKEPFHKMKQFLSDEQNILALRSIQGR [G33I] | -1.15 ± 0.26
GEEMDTAEIARQVKEQLIKHNIGQRIFGHYVLWLSQGSVSEILARPKPWNKLTVRGKEPFHKMKQFLSDEQNILALRSIQGR [G33W] | -0.969 ± 0.069
GEEMDTAEIARQVKEQLIKHNIGQRIFGHYVLSLSQGSVSEILARPKPWNKLTVRGKEPFHKMKQFLSDEQNILALRSIQGR [G33S] | -0.297 ± 0.035
GEEMDTAEIARQVKEQLIKHNIGQRIFGHYVLCLSQGSVSEILARPKPWNKLTVRGKEPFHKMKQFLSDEQNILALRSIQGR [G33C] | -0.4 ± 0.056
GEEMDTAEIARQVKEQLIKHNIGQRIFGHYVLNLSQGSVSEILARPKPWNKLTVRGKEPFHKMKQFLSDEQNILALRSIQGR [G33N] | -0.106 ± 0.068
GEEMDTAEIARQVKEQLIKHNIGQRIFGHYVLGLFQGSVSEILARPKPWNKLTVRGKEPFHKMKQFLSDEQNILALRSIQGR [S35F] | -0.126 ± 0.087
GEEMDTAEIARQVKEQLIKHNIGQRIFGHYVLGLGQGSVSEILARPKPWNKLTVRGKEPFHKMKQFLSDEQNILALRSIQGR [S35G] | -0.039 ± 0.024
GEEMDTAEIARQVKEQLIKHNIGQRIFGHYVLGLHQGSVSEILARPKPWNKLTVRGKEPFHKMKQFLSDEQNILALRSIQGR [S35H] | -0.238 ± 0.052
GEEMDTAEIARQVKEQLIKHNIGQRIFGHYVLGLKQGSVSEILARPKPWNKLTVRGKEPFHKMKQFLSDEQNILALRSIQGR [S35K] | -0.035 ± 0.033
GEEMDTAEIARQVKEQLIKHNIGQRIFGHYVLGLLQGSVSEILARPKPWNKLTVRGKEPFHKMKQFLSDEQNILALRSIQGR [S35L] | -0.384 ± 0.036
GEEMDTAEIARQVKEQLIKHNIGQRIFGHYVLGLMQGSVSEILARPKPWNKLTVRGKEPFHKMKQFLSDEQNILALRSIQGR [S35M] | -0.278 ± 0.038
GEEMDTAEIARQVKEQLIKHNIGQRIFGHYVLGLCQGSVSEILARPKPWNKLTVRGKEPFHKMKQFLSDEQNILALRSIQGR [S35C] | -0.086 ± 0.052
GEEMDTAEIARQVKEQLIKHNIGQRIFGHYVLGLNQGSVSEILARPKPWNKLTVRGKEPFHKMKQFLSDEQNILALRSIQGR [S35N] | -0.081 ± 0.058
GEEMDTAEIARQVKEQLIKHNIGQRIFGHYVLGLWQGSVSEILARPKPWNKLTVRGKEPFHKMKQFLSDEQNILALRSIQGR [S35W] | -0.311 ± 0.036
GEEMDTAEIARQVKEQLIKHNIGQRIFGHYVLGLAQGSVSEILARPKPWNKLTVRGKEPFHKMKQFLSDEQNILALRSIQGR [S35A] | -0.112 ± 0.027
GEEMDTAEIARQVKEQLIKHNIGQRIFGHYVLGLPQGSVSEILARPKPWNKLTVRGKEPFHKMKQFLSDEQNILALRSIQGR [S35P] | 0.062 ± 0.037
GEEMDTAEIARQVKEQLIKHNIGQRIFGHYVLGLDQGSVSEILARPKPWNKLTVRGKEPFHKMKQFLSDEQNILALRSIQGR [S35D] | 0.154 ± 0.045
GEEMDTAEIARQVKEQLIKHNIGQRIFGHYVLGLQQGSVSEILARPKPWNKLTVRGKEPFHKMKQFLSDEQNILALRSIQGR [S35Q] | -0.029 ± 0.032

Variant | abundance fitness
GEEMDTAEIARQVKEQLIKHNIGQRIFGHYVLGLIQGSVSEILARPKPWNKLTVRGKEPFHKMKQFLSDEQNILALRSIQGR [S35I] | -0.308 ± 0.084
GEEMDTAEIARQVKEQLIKHNIGQRIFGHYVLGLVQGSVSEILARPKPWNKLTVRGKEPFHKMKQFLSDEQNILALRSIQGR [S35V] | -0.236 ± 0.031
GEEMDTAEIARQVKEQLIKHNIGQRIFGHYVLGLRQGSVSEILARPKPWNKLTVRGKEPFHKMKQFLSDEQNILALRSIQGR [S35R] | -0.209 ± 0.026
GEEMDTAEIARQVKEQLIKHNIGQRIFGHYVLGLYQGSVSEILARPKPWNKLTVRGKEPFHKMKQFLSDEQNILALRSIQGR [S35Y] | -0.298 ± 0.08
GEEMDTAEIARQVKEQLIKHNIGQRIFGHYVLGASQGSVSEILARPKPWNKLTVRGKEPFHKMKQFLSDEQNILALRSIQGR [L34A] | -0.228 ± 0.033
GEEMDTAEIARQVKEQLIKHNIGQRIFGHYVLGTSQGSVSEILARPKPWNKLTVRGKEPFHKMKQFLSDEQNILALRSIQGR [L34T] | -0.213 ± 0.038
GEEMDTAEIARQVKEQLIKHNIGQRIFGHYVLGVSQGSVSEILARPKPWNKLTVRGKEPFHKMKQFLSDEQNILALRSIQGR [L34V] | -0.151 ± 0.028
GEEMDTAEIARQVKEQLIKHNIGQRIFGHYVLGMSQGSVSEILARPKPWNKLTVRGKEPFHKMKQFLSDEQNILALRSIQGR [L34M] | 0.09 ± 0.039
GEEMDTAEIARQVKEQLIKHNIGQRIFGHYVLGISQGSVSEILARPKPWNKLTVRGKEPFHKMKQFLSDEQNILALRSIQGR [L34I] | -0.052 ± 0.062
GEEMDTAEIARQVKEQLIKHNIGQRIFGHYVLGGSQGSVSEILARPKPWNKLTVRGKEPFHKMKQFLSDEQNILALRSIQGR [L34G] | -0.461 ± 0.029
GEEMDTAEIARQVKEQLIKHNIGQRIFGHYVLGSSQGSVSEILARPKPWNKLTVRGKEPFHKMKQFLSDEQNILALRSIQGR [L34S] | -0.349 ± 0.04
GEEMDTAEIARQVKEQLIKHNIGQRIFGHYVLGYSQGSVSEILARPKPWNKLTVRGKEPFHKMKQFLSDEQNILALRSIQGR [L34Y] | -0.26 ± 0.063
GEEMDTAEIARQVKEQLIKHNIGQRIFGHYVLGFSQGSVSEILARPKPWNKLTVRGKEPFHKMKQFLSDEQNILALRSIQGR [L34F] | -0.167 ± 0.068
GEEMDTAEIARQVKEQLIKHNIGQRIFGHYVLGNSQGSVSEILARPKPWNKLTVRGKEPFHKMKQFLSDEQNILALRSIQGR [L34N] | -0.362 ± 0.079
GEEMDTAEIARQVKEQLIKHNIGQRIFGHYVLGWSQGSVSEILARPKPWNKLTVRGKEPFHKMKQFLSDEQNILALRSIQGR [L34W] | -0.264 ± 0.032
GEEMDTAEIARQVKEQLIKHNIGQRIFGHYVLGQSQGSVSEILARPKPWNKLTVRGKEPFHKMKQFLSDEQNILALRSIQGR [L34Q] | -0.173 ± 0.039
GEEMDTAEIARQVKEQLIKHNIGQRIFGHYVLGKSQGSVSEILARPKPWNKLTVRGKEPFHKMKQFLSDEQNILALRSIQGR [L34K] | -0.346 ± 0.04
GEEMDTAEIARQVKEQLIKHNIGQRIFGHYVLGRSQGSVSEILARPKPWNKLTVRGKEPFHKMKQFLSDEQNILALRSIQGR [L34R] | -0.393 ± 0.027
GEEMDTAEIARQVKEQLIKHNIGQRIFGHYVLGPSQGSVSEILARPKPWNKLTVRGKEPFHKMKQFLSDEQNILALRSIQGR [L34P] | -0.519 ± 0.059
GEEMDTAEIARQVKEQLIKHNIGQRIFGHYVLGDSQGSVSEILARPKPWNKLTVRGKEPFHKMKQFLSDEQNILALRSIQGR [L34D] | -0.274 ± 0.056
GEEMDTAEIARQVKEQLIKHNIGQRIFGHYVLGCSQGSVSEILARPKPWNKLTVRGKEPFHKMKQFLSDEQNILALRSIQGR [L34C] | -0.047 ± 0.055

— the Human Domainome abundance scans (Beltran et al. 2025)
